# Article PMC12254369, “Small molecule disruption of RARα/NCoR1 interaction inhibits chaperone-mediated autophagy in cancer” (EMBO Molecular Medicine, 2025)
# Ends that are not written are not given here. * marks the point of attachment. FITC = O=C1OC2(c3ccc(O)cc3Oc3cc(O)ccc32)c2ccc(NC(=S)*)cc21; Ahx = NCCCCCC(=O)O
# T1: His-tagged RARα LBD with FITC-SRC (Homo sapiens, UniProt P10276)
# T1 construct: gene RARA; LBD residues 176-462 with His tag
# T1 sequence (P10276 176-462): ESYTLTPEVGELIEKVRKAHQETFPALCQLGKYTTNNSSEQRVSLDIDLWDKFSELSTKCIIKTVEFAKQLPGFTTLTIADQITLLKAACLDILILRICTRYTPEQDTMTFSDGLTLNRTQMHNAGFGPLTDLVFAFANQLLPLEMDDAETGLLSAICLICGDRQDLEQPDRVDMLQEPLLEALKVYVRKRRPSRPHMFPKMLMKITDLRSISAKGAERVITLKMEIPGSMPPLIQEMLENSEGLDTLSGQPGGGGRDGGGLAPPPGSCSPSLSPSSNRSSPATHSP
# T2: Recombinant RARα LBD (ligand binding domain of human retinoic acid receptor alpha, residues 176-462, … (human, UniProt P10276 176-462))
# T2 construct: The His tag is detected by the anti-6HIS Tb cryptate antibody in the TR-FRET assay; also called His-tagged RARα LBD; source: E. coli BL21(DE3), purified (Ni-NTA, Superdex 200 gel filtration); not shown: His tag, N-terminal, kept
# T2 sequence (looked up): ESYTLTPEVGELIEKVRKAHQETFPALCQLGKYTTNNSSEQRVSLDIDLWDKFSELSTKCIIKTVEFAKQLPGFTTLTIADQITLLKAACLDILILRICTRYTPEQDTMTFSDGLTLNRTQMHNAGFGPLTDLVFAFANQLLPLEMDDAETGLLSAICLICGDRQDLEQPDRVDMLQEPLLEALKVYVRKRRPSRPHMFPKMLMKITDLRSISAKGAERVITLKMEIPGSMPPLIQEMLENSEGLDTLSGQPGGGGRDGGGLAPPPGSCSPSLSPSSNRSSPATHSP
# Legend:
# [1] = molecular target: T1, His-tagged RARα LBD with FITC-SRC; assay: TR-FRET coactivator peptide recruitment; type: binding; conditions: 3 nM His-RARα LBD, 50 nM FITC-SRC, 5 mM DTT, pH 7.4, 1 h; agonist
# [2] = molecular target: T2, Recombinant RARα LBD (ligand binding …); assay: fluorescence polarisation; RARα LBD serially diluted from 50 µM, 5 nM FITC-NCoR1 peptide; 20 mM HEPES, 150 mM NaCl, 5 mM DTT, pH 7.5; read at 1 h; with DMSO, 25 µM CIM7, 10 µM ATRA or AM580; conditions: both partners purified
# [3] = molecular target: T2, Recombinant RARα LBD (ligand binding …); assay: AlphaScreen or HTRF; TR-FRET: 3 nM His-tagged RARα LBD, 0.5 nM anti-6HIS Tb cryptate (donor), 50 nM FITC-SRC (acceptor); 1x PBS, 0.02% Pluronic F-127, 5 mM DTT, pH 7.4; 1 h; increasing concentrations of CIM7, ATRA or AM580; conditions: both partners purified
molecule,measurement,setting,value
"CC1=C(/C=C/C(C)=C/C=C/C(C)=C/C(=O)O)C(C)(C)CCC1 [ATRA, All-trans retinoic acid]",TR-FRET coactivator peptide recruitment,[1],"rather enhance binding of the coactivator, SRC"
"{FITC-Ahx}-RLITLADHICQIITQDFAR (peptide of nuclear receptor corepressor 1 (NCoR1); also called NCoR1 fluorescent peptide; source: synthetic peptide (GenScript, purity >95%)) [FITC-NCoR1 peptide (FITC-Ahx-RLITLADHICQIITQDFAR)]",binding result,[2],binds
"{FITC-Ahx}-RHKILHRLLQEGS (source: synthetic peptide (GenScript, purity >95%)) [FITC-SRC peptide (FITC-Ahx-RHKILHRLLQEGS)]",binding result,[3],binds
